Source: patent publication US20100180464A1, “Cores and microcapsules suitable for parenteral administration as well as process for their manufacture” (STRATOSPHERE PHARMA AB, priority 2007, published 2010)

How the values were obtained:
Assay type in all cases: physicochemical
[1] = Electrophoresis (SDS-PAGE 12 and 18%) with silver staining of proteins after encapsulation in cores; conditions: cores with sodium hyaluronate and rice starch diluent particles; carbon dioxide atomisation; cold medium ethanol or ethanol containing solid carbon dioxide; dried with air at room temperature
Method: (§1) Cores suitable for air suspension coating and containing either human growth hormone (hGH) or erythropoietin (EPO) were prepared by essentially according to Example 1 using carbon dioxide for atomisation but with ethanol or ethanol containing solid carbon dioxide as the cold medium. For hGH the composition contained sodium hyaluronate (1%, about 4.1 g), diluent particles (rice starch, Sigma 57260, 1.83 g) and hGH (217 mg) and for EPO sodium hyaluronate (about 3.4), diluent particles (about 1.48 g) and EPO (11 mg). There was substantial stirring in the cold medium in the presence of solid carbon dioxide and little, if any, backflow of gas. The cold medium was removed by filtration and the cores dried using air at room temperature and atmospheric pressure. Cores suitable for air suspension coating were formed containing hGH (624 mg) and EPO (468 mg). […] No increase in the content of dimer or polymer forms of hGH were observed by HPLC size exclusion chromatography (SEC-HPLC, TSK2000 SWx1, Tosoh Corporation) according to Reslow et al (Sustained release of human growth hormone (hGH) from PLG-coated starch microspheres. Drug Delivery Systems and Sciences, 2002, 2,1 103-109).

[2] = Western blotting for dimer content
Method: as §1

[3] = HPLC size exclusion chromatography (SEC-HPLC, TSK2000 SWx1) for dimer or polymer forms; conditions: cores prepared per Example 10
Method: as §1

| Substance | degradation products detected by electrophoresis [1] | increase in dimer content ([2]; absence of carbon dioxide in the cold medium (ethanol)) | increase in dimer content ([2]; carbon dioxide present in the cold medium (ethanol)) | increase in the content of dimer or polymer forms [3] |
| --- | --- | --- | --- | --- |
| erythropoietin [EPO] | No degradation products | clearly higher increase | slight increase |  |
| human growth hormone [hGH] | No degradation products |  |  | No increase |
